Our source for the Ka values is US20120094356A1.

This experiment has as its target trypsin. The experiment is described as follows: trypsin inhibition assay, 10 nM each, chromogenic substrate; Ka calculated.

In the case of “human growth hormone/alpha-1 antitrypsin fusion [T109wt: α1AT/hGH]”, the Ka was 7.5e+08 M⁻¹.
